Assays:
[1] = biological target: trypsin-activated Vip3Aa DI-DIII (DI-DIII^act) (Bacillus thuringiensis 9816C); assay: SEC; trypsin-treated proteins (1:50 wt:wt, 4 °C, 6 h) on Superdex 200 Increase 10/300 GL, peak fractions analysed by SDS-PAGE; untreated DI-DIV and DI-DIII as controls
[2] = biological target: Vip3Aa DI-DIII (domain I to domain III truncation variant, untreated) (Bacillus thuringiensis 9816C); assay: as above
[3] = biological target: Vip3Aa (full-length Vip3Aa protoxin, from Bacillus thuringiensis 9816C) (Bacillus thuringiensis 9816C); assay: SEC + other: dynamic light scattering; purified proteins on a Superdex 200 Increase 10/300 GL column; DLS of the same proteins (Fig. S2A)

“trypsin-activated Vip3Aa DI-DIII (DI-DIII^act) (complex)” showed a stoichiometry N [1] of 4.

With “Vip3Aa DI-DIII (domain I to domain III truncation variant, untreated) (domain or fragment)” the stoichiometry N [2] was 4.

With “Vip3Aa (full-length Vip3Aa protoxin, from Bacillus thuringiensis 9816C) (natural protein)” the stoichiometry N [3] was 4.

Reference: article PMC10017365, “Functional characterization of Vip3Aa from Bacillus thuringiensis reveals the contributions of specific domains to its insecticidal activity” (The Journal of Biological Chemistry, 2023)
